The text below walks through data of patent publication US20250339569A1 (3B PHARMACEUTICALS, published 2025).

The chains are these.
B1: 3BP-3315 (peptide)
peptide: Ac-VYCE[Sar]DWLT[Bta]QC-NH2
modifications: linker 3-12 via mXylylene
SMILES: CC(=O)N[C@H](C(=O)N[C@@H](Cc1ccc(O)cc1)C(=O)N[C@H]1CSCc2cccc(c2)CSC[C@@H](C(N)=O)NC(=O)[C@H](CCC(N)=O)NC(=O)[C@H](Cc2csc3ccccc23)NC(=O)[C@H]([C@@H](C)O)NC(=O)[C@H](CC(C)C)NC(=O)[C@H](Cc2c[nH]c3ccccc23)NC(=O)[C@H](CC(=O)O)NC(=O)CN(C)C(=O)[C@H](CCC(=O)O)NC1=O)C(C)C
notes: also called Ac-Val-Tyr-[Cys(3MeBn)-Glu-Nmg-Asp-Trp-Leu-Thr-Bta-Gln-Cys]-NH2
B2: 3BP-3048 (peptide)
peptide: Ac-VYCEGDW[dL]TWQC-NH2
modifications: linker 3-12 via mXylylene
SMILES: CC(=O)N[C@H](C(=O)N[C@@H](Cc1ccc(O)cc1)C(=O)N[C@H]1CSCc2cccc(c2)CSC[C@@H](C(N)=O)NC(=O)[C@H](CCC(N)=O)NC(=O)[C@H](Cc2c[nH]c3ccccc23)NC(=O)[C@H]([C@@H](C)O)NC(=O)[C@@H](CC(C)C)NC(=O)[C@H](Cc2c[nH]c3ccccc23)NC(=O)[C@H](CC(=O)O)NC(=O)CNC(=O)[C@H](CCC(=O)O)NC1=O)C(C)C
notes: also called Ac-Val-Tyr-[Cys(3MeBn)-Glu-Gly-Asp-Trp-leu-Thr-Trp-Gln-Cys]-NH2
B3: 3BP-3312 (peptide)
peptide: Ac-VYCE[Sar]DWLT[Trp(5-Cl)]QC-NH2
modifications: linker 3-12 via mXylylene
SMILES: CC(=O)N[C@H](C(=O)N[C@@H](Cc1ccc(O)cc1)C(=O)N[C@H]1CSCc2cccc(c2)CSC[C@@H](C(N)=O)NC(=O)[C@H](CCC(N)=O)NC(=O)[C@H](Cc2c[nH]c3ccc(Cl)cc23)NC(=O)[C@H]([C@@H](C)O)NC(=O)[C@H](CC(C)C)NC(=O)[C@H](Cc2c[nH]c3ccccc23)NC(=O)[C@H](CC(=O)O)NC(=O)CN(C)C(=O)[C@H](CCC(=O)O)NC1=O)C(C)C
notes: also called Ac-Val-Tyr-[Cys(3MeBn)-Glu-Nmg-Asp-Trp-Leu-Thr-5Clw-Gln-Cys]-NH2
B4: 3BP-3310 (peptide)
peptide: Ac-VYCE[Sar]D[Trp(5-OH)]LTWQC-NH2
modifications: linker 3-12 via mXylylene
SMILES: CC(=O)N[C@H](C(=O)N[C@@H](Cc1ccc(O)cc1)C(=O)N[C@H]1CSCc2cccc(c2)CSC[C@@H](C(N)=O)NC(=O)[C@H](CCC(N)=O)NC(=O)[C@H](Cc2c[nH]c3ccccc23)NC(=O)[C@H]([C@@H](C)O)NC(=O)[C@H](CC(C)C)NC(=O)[C@H](Cc2c[nH]c3ccc(O)cc23)NC(=O)[C@H](CC(=O)O)NC(=O)CN(C)C(=O)[C@H](CCC(=O)O)NC1=O)C(C)C
notes: also called Ac-Val-Tyr-[Cys(3MeBn)-Glu-Nmg-Asp-Hyw-Leu-Thr-Trp-Gln-Cys]-NH2
B5: 3BP-3061 (peptide)
peptide: Ac-VYCEG[Aib]WLTWQC-NH2
modifications: linker 3-12 via mXylylene
SMILES: CC(=O)N[C@H](C(=O)N[C@@H](Cc1ccc(O)cc1)C(=O)N[C@H]1CSCc2cccc(c2)CSC[C@@H](C(N)=O)NC(=O)[C@H](CCC(N)=O)NC(=O)[C@H](Cc2c[nH]c3ccccc23)NC(=O)[C@H]([C@@H](C)O)NC(=O)[C@H](CC(C)C)NC(=O)[C@H](Cc2c[nH]c3ccccc23)NC(=O)C(C)(C)NC(=O)CNC(=O)[C@H](CCC(=O)O)NC1=O)C(C)C
notes: also called Ac-Val-Tyr-[Cys(3MeBn)-Glu-Gly-Aib-Trp-Leu-Thr-Trp-Gln-Cys]-NH2
B6: 3BP-3047 (peptide)
peptide: Ac-VYCEG[dD]WLTWQC-NH2
modifications: linker 3-12 via mXylylene
SMILES: CC(=O)N[C@H](C(=O)N[C@@H](Cc1ccc(O)cc1)C(=O)N[C@H]1CSCc2cccc(c2)CSC[C@@H](C(N)=O)NC(=O)[C@H](CCC(N)=O)NC(=O)[C@H](Cc2c[nH]c3ccccc23)NC(=O)[C@H]([C@@H](C)O)NC(=O)[C@H](CC(C)C)NC(=O)[C@H](Cc2c[nH]c3ccccc23)NC(=O)[C@@H](CC(=O)O)NC(=O)CNC(=O)[C@H](CCC(=O)O)NC1=O)C(C)C
notes: also called Ac-Val-Tyr-[Cys(3MeBn)-Glu-Gly-asp-Trp-Leu-Thr-Trp-Gln-Cys]-NH2
B7: 3BP-3049 (peptide)
peptide: Ac-VYCEGDWL[dT]WQC-NH2
modifications: linker 3-12 via mXylylene
SMILES: CC(=O)N[C@H](C(=O)N[C@@H](Cc1ccc(O)cc1)C(=O)N[C@H]1CSCc2cccc(c2)CSC[C@@H](C(N)=O)NC(=O)[C@H](CCC(N)=O)NC(=O)[C@H](Cc2c[nH]c3ccccc23)NC(=O)[C@@H]([C@H](C)O)NC(=O)[C@H](CC(C)C)NC(=O)[C@H](Cc2c[nH]c3ccccc23)NC(=O)[C@H](CC(=O)O)NC(=O)CNC(=O)[C@H](CCC(=O)O)NC1=O)C(C)C
notes: also called Ac-Val-Tyr-[Cys(3MeBn)-Glu-Gly-Asp-Trp-Leu-thr-Trp-Gln-Cys]-NH2
B8: 3BP-3045 (peptide)
peptide: Ac-VYC[dE]GDWLTWQC-NH2
modifications: linker 3-12 via mXylylene
SMILES: CC(=O)N[C@H](C(=O)N[C@@H](Cc1ccc(O)cc1)C(=O)N[C@H]1CSCc2cccc(c2)CSC[C@@H](C(N)=O)NC(=O)[C@H](CCC(N)=O)NC(=O)[C@H](Cc2c[nH]c3ccccc23)NC(=O)[C@H]([C@@H](C)O)NC(=O)[C@H](CC(C)C)NC(=O)[C@H](Cc2c[nH]c3ccccc23)NC(=O)[C@H](CC(=O)O)NC(=O)CNC(=O)[C@@H](CCC(=O)O)NC1=O)C(C)C
B9: 3BP-3502 (peptide)
peptide: Ac-VYCE[dP]DW[Aib]TWAC-NH2
modifications: linker 3-12 via mXylylene
SMILES: CC(=O)N[C@H](C(=O)N[C@@H](Cc1ccc(O)cc1)C(=O)N[C@H]1CSCc2cccc(c2)CSC[C@@H](C(N)=O)NC(=O)[C@H](C)NC(=O)[C@H](Cc2c[nH]c3ccccc23)NC(=O)[C@H]([C@@H](C)O)NC(=O)C(C)(C)NC(=O)[C@H](Cc2c[nH]c3ccccc23)NC(=O)[C@H](CC(=O)O)NC(=O)[C@H]2CCCN2C(=O)[C@H](CCC(=O)O)NC1=O)C(C)C
notes: also called Ac-Val-Tyr-[Cys(3MeBn)-Glu-pro-Asp-Trp-Aib-Thr-Trp-Ala-Cys]-NH2
B10: 3BP-3572 (peptide)
peptide: Ac-V[Tic]CE[dP]DWLTWSC-NH2
modifications: linker 3-12 via mXylylene
SMILES: CC(=O)N[C@H](C(=O)N1Cc2ccccc2C[C@H]1C(=O)N[C@H]1CSCc2cccc(c2)CSC[C@@H](C(N)=O)NC(=O)[C@H](CO)NC(=O)[C@H](Cc2c[nH]c3ccccc23)NC(=O)[C@H]([C@@H](C)O)NC(=O)[C@H](CC(C)C)NC(=O)[C@H](Cc2c[nH]c3ccccc23)NC(=O)[C@H](CC(=O)O)NC(=O)[C@H]2CCCN2C(=O)[C@H](CCC(=O)O)NC1=O)C(C)C
notes: also called Ac-Val-Tic-[Cys(3MeBn)-Glu-pro-Asp-Trp-Leu-Thr-Trp-Ser-Cys]-NH2
B11: 3BP-3328 (peptide)
peptide: VYCEGDWLTWQC-NH2
modifications: linker 3-12 via mXylylene; not fully specified (N-terminus); also: indium complexed by DOTA
B12: 3BP-3741 (peptide)
peptide: Isovaleryl-RCE[dP]DWLTWE([Apr-AEEA-DOTA])C-NH2
modifications: linker 2-11 via 3MeBn; reading uncertain
notes: also called Iva-Arg-[Cys(3MeBn)-Glu-pro-Asp-Trp-Leu-Thr-Trp-Glu(NH-Apr-O2Oc-DOTA′)-Cys]-NH2
B13: 3BP-3872 (peptide)
peptide: Isovaleryl-ECE[dP]DWLTWE([Apr-AEEA-DOTA])C-NH2
modifications: linker 2-11 via mXylylene; reading uncertain
notes: also called Iva-Glu-[Cys(3MeBn)-Glu-pro-Asp-Trp-Leu-Thr-Trp-Glu(NH-Apr-O2Oc-DOTA′)-Cys]-NH2
B14: 3BP-3871 (peptide)
peptide: Isovaleryl-DCE[dP]DWLTWE([Apr-AEEA-DOTA])C-NH2
modifications: linker 2-11 via mXylylene; reading uncertain
notes: also called Iva-Asp-[Cys(3MeBn)-Glu-pro-Asp-Trp-Leu-Thr-Trp-Glu(NH-Apr-O2Oc-DOTA′)-Cys]-NH2
B15: 3BP-3731 (peptide)
peptide: Desaminotyrosyl-CE[dP]DWLTWSC-NH2
modifications: linker 1-10 via 3MeBn
notes: also called 4OHPhp-[Cys(3MeBn)-Glu-pro-Asp-Trp-Leu-Thr-Trp-Ser-Cys]-NH2
B16: 3BP-3053 (peptide)
peptide: Ac-VYCEGAWLTWQC-NH2
modifications: linker 3-12 via mXylylene
SMILES: CC(=O)N[C@H](C(=O)N[C@@H](Cc1ccc(O)cc1)C(=O)N[C@H]1CSCc2cccc(c2)CSC[C@@H](C(N)=O)NC(=O)[C@H](CCC(N)=O)NC(=O)[C@H](Cc2c[nH]c3ccccc23)NC(=O)[C@H]([C@@H](C)O)NC(=O)[C@H](CC(C)C)NC(=O)[C@H](Cc2c[nH]c3ccccc23)NC(=O)[C@H](C)NC(=O)CNC(=O)[C@H](CCC(=O)O)NC1=O)C(C)C
B17: 3BP-3278 (peptide)
peptide: {DOTA-Ttds″}-VYCE[Sar]DWLTWAC-NH2
modifications: linker 3-12 via mXylylene; not fully specified
notes: also called DOTA-Ttds-Val-Tyr-[Cys(3MeBn)-Glu-Nmg-Asp-Trp-Leu-Thr-Trp-Ala-Cys]-NH2
B18: 3BP-3056 (peptide)
peptide: Ac-VYCEGDWLAWQC-NH2
modifications: linker 3-12 via mXylylene
SMILES: CC(=O)N[C@H](C(=O)N[C@@H](Cc1ccc(O)cc1)C(=O)N[C@H]1CSCc2cccc(c2)CSC[C@@H](C(N)=O)NC(=O)[C@H](CCC(N)=O)NC(=O)[C@H](Cc2c[nH]c3ccccc23)NC(=O)[C@H](C)NC(=O)[C@H](CC(C)C)NC(=O)[C@H](Cc2c[nH]c3ccccc23)NC(=O)[C@H](CC(=O)O)NC(=O)CNC(=O)[C@H](CCC(=O)O)NC1=O)C(C)C

Starred links: 1 amine or outer side, 2 acyl side, 3 side chain; linkers in the order of their positions; H or OH if unused. Positions of bridges follow the written chain, without caps; N, C: chain ends. Non-standard residues stand in square brackets, D forms with d. Groups on a side chain read outwards from the residue. Primed or numbered codes have the meaning given here. No end group written: not given here. *: point of attachment. DOTA = O=C(O)CN1CCN(CC(=O)O)CCN(CC(=O)*)CCN(CC(=O)O)CC1; Trp(5-Cl) = N[C@@H](Cc1c[nH]c2ccc(Cl)cc12)C(=O)O; Trp(5-OH) = N[C@@H](Cc1c[nH]c2ccc(O)cc12)C(=O)O; Desaminotyrosyl = O=C(CCc1ccc(O)cc1)*; mXylylene = c1cc(C[*:1])cc(C[*:2])c1; Bta = N[C@@H](Cc1csc2ccccc12)C(=O)O; Tic = O=C(O)[C@@H]1Cc2ccccc2CN1; Isovaleryl = CC(C)CC(=O)*; Apr = not defined here; AEEA = NCCOCCOCC(=O)O; Aib = CC(C)(N)C(=O)O; Ttds″ = Ttds spacer; Sar = CNCC(=O)O

The target of the first assay is T1, human carbonic anhydrase 9 (CAIX) (human, UniProt Q16790 38-459). As to the kind of experiment: FACS competition on HT-29 cells against tracer 3BP-2776; pIC50 category C = pIC50 6.1-7.0. As for the experimental part: (§1) CAIX-expressing human HT-29 colorectal cancer cells (DSMZ, RRID: CVCL_0320) were cultured in McCoys's 5A modified medium (Biochrom, #F1015) including 10% fetal calf serum (FCS), 2 mM L-glutamine, 100 U/ml penicillin and 100 μg/mL streptomycin. Cells were detached with Accutase (Biolegend, #423201) and washed in FACS buffer (PBS including 1% FCS). Cells were diluted in FACS buffer to a final concentration of 500.000 cells per ml. 200 μL of the cell suspension were transferred to a u-shaped non-binding 96-well plate (Greiner) and cells were washed in ice-cold FACS buffer.
(§2) When biotinylated compounds were used an additional incubation step with 1 μg/mL APC-Streptavidin (Miltenyi; #130-106-791) in 50 μL FACS buffer for 30 minutes on ice was performed.
(§3) Cells were washed twice with ice-cold FACS buffer and analyzed in an Attune NxT flow cytometer (Thermo Fisher). Median fluorescence intensities (MFI) of the APC/Cy5-channel were calculated by Attune NxT software.
Molecule B1 registered a pIC50 of 6.1 to 7 pic50.
The molecule B2 returned a pIC50 of 6.1 to 7 pic50.
Consider B3, for which the pIC50 is 6.1 to 7 pic50.
Molecule B4 returned a pIC50 of 6.1 to 7 pic50.
Take B5: the pIC50 fell in the range of 6.1 to 7 pic50.
The molecule B6 registered a pIC50 of 6.1 to 7 pic50.
The same measure, in the same setting: with B7 the figure was 6.1 to 7 pic50; with B8, 6.1 to 7 pic50.

The target in the next assay is T1, human carbonic anhydrase 9 (CAIX). Description: FACS competition on HT-29 cells against tracer 3BP-2776; pIC50 category B = pIC50 7.1-8.0. The procedure:
as §1, §2, §3
Consider B9, for which the pIC50 lay within 7.1 to 8 pic50.
The same measure, in the same setting: the same measure for B10: 7.1 to 8 pic50.
B11: the pIC50 lay in the range of 7.1 to 8 pic50.
Molecule B12 returned a pIC50 of 7.1 to 8 pic50.
In the case of B13, the pIC50 lay in the range of 7.1 to 8 pic50.
Take B14: the pIC50 lay within 7.1 to 8 pic50.
Molecule B15 came in with a pIC50 of 7.1 to 8 pic50.
As for B16, the pIC50 fell in the range of 7.1 to 8 pic50.
With B17, the pIC50 lay in the range of 7.1 to 8 pic50.
As to B18, the pIC50 was 7.1 to 8 pic50.
